This note sets out measurements from publication PMC8265641, “Enterococcal PrgU Provides Additional Regulation of Pheromone-Inducible Conjugative Plasmids”.

Data set [1] concerns the target PrgU-His (PrgU with C-terminal His tag) (Enterococcus faecalis (plasmid pCF10)). Put plainly: GEMMA (gas-phase electrophoretic mobility macromolecule analysis); main SEC peak of PrgU-His diluted to 0.01 mg/ml in 20 mM ammonium acetate, pH 7.8; self-association, dimer and monomer.
The target is the same in data set [2]. Put plainly: SEC-MALS; 200 ul PrgU-His at 1 mg/ml on Superdex 200 10/300 GL Increase, 20 mM potassium phosphate pH 7.0, 150 mM NaCl; self-association, dimer.
A further data set addresses PrgU-His (Enterococcus faecalis plasmid pCF10, UniProt Q5G3Q2 1-118). Put plainly: MST; MST: 20 mM KPi pH 7.0, 150 mM NaCl, 0.05% Tween 20, 0.1 U/ul RNase inhibitor, ~25 C; EMSA: 20 min at ~25 C, 1% agarose run at 4 C, buffer as previously described (not given). As to conditions: protein: recombinant, tags: C-terminal 10xHis with 3C protease site.

In the case of “PrgU-His (PrgU with C-terminal His tag) (natural protein)”, the stoichiometry N in data set [1] and in data set [2] was 2 throughout.

Regarding ACTCGTAAGAGCCGTGCAAACAACGTGTTGCATGGCTCTTTTTCTAC (ssDNA) [IRS2 ssDNA], in the data set with PrgU-His, the binding result was “no binding”.

B1: IRS2 dsDNA (dsDNA)
DNA 1: ACTCGTAAGAGCCGTGCAAACAACGTGTTGCATGGCTCTTTTTCTAC
DNA 2: GTAGAAAAAGAGCCATGCAACACGTTGTTTGCACGGCTCTTACGAGT
For B1, in the data set with PrgU-His (blunt), the binding result is “no binding”.

B2: IRS1 RNA (structured_RNA)
RNA: GGAGCAGCGGGGAAUGUAUACAGUUCAUGUAUAUGUUCCCCGCUUUUUUUG
For the molecule B2, in the data set with PrgU-His (hairpin), the binding result is listed as “no binding”.

B3: IRS1 ssDNA (ssDNA)
DNA: GGAGCAGCGGGGAATGTATACAGTTCATGTATATGTTCCCCGCTTTTTTTG
On to B3, for which the binding result with PrgU-His is on record as “no binding”.

B4: IRS1 dsDNA (dsDNA)
DNA 1: GGAGCAGCGGGGAATGTATACAGTTCATGTATATGTTCCCCGCTTTTTTTG
DNA 2: CAAAAAAAGCGGGGAACATATACATGAACTGTATACATTCCCCGCTGCTCC
As to B4, the binding result in the data set with PrgU-His (blunt) is “no binding”.

Consider ACUCGUAAGAGCCGUGCAAACAACGUGUUGCAUGGCUCUUUUUCUAC (structured_RNA) [IRS2 RNA], for which the binding result with PrgU-His (hairpin) is “no binding”.
